Common to all, as to test: Kinetic parameters from progress curves, p-nitroanilide substrates
For data set [1], the target named is T1, B. amyloliquefaciens subtilisin, wild type (gly-166) (Bacillus amyloliquefaciens, UniProt P00782).
T1 construct: codons for the mature subtilisin corresponding to that secreted by the B. amyloliquefaciens; made in house; host or cells: Bacillus subtilis BG2036 (protease deficient), plasmid pS4-5
T1 sequence (P00782 108-382): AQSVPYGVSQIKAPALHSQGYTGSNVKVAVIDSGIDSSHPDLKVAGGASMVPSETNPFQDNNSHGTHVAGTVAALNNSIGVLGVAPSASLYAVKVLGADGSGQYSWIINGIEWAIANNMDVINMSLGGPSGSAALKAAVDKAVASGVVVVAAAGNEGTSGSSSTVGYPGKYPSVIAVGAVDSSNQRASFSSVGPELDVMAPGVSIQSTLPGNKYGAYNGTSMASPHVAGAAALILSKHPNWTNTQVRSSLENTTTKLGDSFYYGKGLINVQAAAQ
It counts as biochemical. To be noted: 25° C., 0.1M tris buffer, pH 8.6. Here is the method: (§1) B. subtilis strain BG2036 obtained by the method of Example 11 was transformed by the plasmids of Examples 14, 15 or 20 and by pS4-5 as a control. Transformants were plated or cultured in shaker flasks for 16 to 48 h at 37° C. in LB media plus 12.5 μg/ml chloramphenicol. Mutant enzymatically active subtilisin was recovered by dialyzing cell broth against 0.01M sodium phosphate buffer, pH 6.2. The dialyzed broth was then titrated to pH 6.2 with 1N HCl and loaded on a 2.5×2 cm column of CM cellulose (CM-52 Whatman). After washing with 0.01M sodium phosphate, pH 6.2, the subtilisins (except mutants at position +222) were eluted with the same buffer made 0.08N in NaCl. The mutant subtilisins at position +222 were each eluted with 0.1M sodium phosphate, pH 7.0. The purified mutant and wild type enzymes were then used in studies of oxidation stability, Km, Kcat, Kcat/Km ratio, pH optimum, and changes in substrate specificity.
(§2) Various mutants for glycine+166 were screened for modified Kcat, Km and Kcat/Km ratios. Kinetic parameters were obtained by analysis of the progress curves of the reactions. The rate of reaction was measured as a function of substrate concentration. Data was analyzed by fitting to the Michaelis-Menton equation using the non-linear regression algorithm of Marquardt (Marquardt, D. W. 1963, "J. Soc. Ind. Appl. Math." 11, 431-41).

Substrate in data set [2]: C[C@H](NC(=O)CCC(=O)O)C(=O)N[C@@H](C)C(=O)N1CCC[C@H]1C(=O)N[C@@H](Cc1ccccc1)C(=O)Nc1ccc([N+](=O)[O-])cc1
It counts as biochemical, B. amyloliquefaciens. To be noted: other: 25° C., 0.1M tris buffer, pH 8.6. Here is the method: (§3) The procedure of Examples 13-14 was followed in substantial detail, except that the mutagenesis primer differed (the 37 mer shown in FIG. 13 was used), the two restriction enzymes were SacI and XmaIII rather than PstI and KpnI and the resulting constructions differed, as shown in FIG. 13.
as §1, §2

Substrate in data set [3]: CC(C)[C@H](NC(=O)c1ccccc1)C(=O)NCC(=O)N[C@@H](CCCNC(=N)N)C(=O)Nc1ccc([N+](=O)[O-])cc1
The format is biochemical, B. amyloliquefaciens. To be noted: other: 25° C., 0.1M tris buffer, pH 8.6. Here is the method:
as §3, §1, §2

Substrate in data set [4]: CC(C)[C@H](NC(=O)c1ccccc1)C(=O)NCC(=O)N[C@@H](CCCNC(=N)N)C(=O)Nc1ccc([N+](=O)[O-])cc1
It counts as biochemical. To be noted: other: 25° C., 0.1M tris buffer, pH 8.6. Here is the method: as §1, §2

*1 amine or outer side, *2 acyl side, *3 side chain or, on linkers, in order; H or OH if unused. Where a SMILES comes first, the peptide text is derived from it. The star is where a group is joined. pNA = O=[N+]([O-])c1ccc(N*)cc1; Suc = O=C(CCC(=O)[*:2])[*:1]

As for `C[C@H](NC(=O)CCC(=O)O)C(=O)N[C@@H](C)C(=O)N1CCC[C@H]1C(=O)N[C@@H](Cc1ccccc1)C(=O)Nc1ccc([N+](=O)[O-])cc1` [sAAPFpN, succinyl-L-Alanyl-L-Alanyl-L-Prolyl-L-Phenylalanyl-p-nitroanilide] (Suc-AAPF-pNA), in data set [1], the Kcat came out at 37 s⁻¹.

B1: B. amyloliquefaciens subtilisin variant ala + 166 (A166, glycine+166 substituted) (Bacillus amyloliquefaciens; G273A) (protein)
chain: AQSVPYGVSQIKAPALHSQGYTGSNVKVAVIDSGIDSSHPDLKVAGGASMVPSETNPFQDNNSHGTHVAGTVAALNNSIGVLGVAPSASLYAVKVLGADGSGQYSWIINGIEWAIANNMDVINMSLGGPSGSAALKAAVDKAVASGVVVVAAAGNEGTSGSSSTVAYPGKYPSVIAVGAVDSSNQRASFSSVGPELDVMAPGVSIQSTLPGNKYGAYNGTSMASPHVAGAAALILSKHPNWTNTQVRSSLENTTTKLGDSFYYGKGLINVQAAAQ
notes: codons for the mature subtilisin corresponding to that secreted by the B. amyloliquefaciens; made in house; host or cells: Bacillus subtilis BG2036 (protease deficient)
In the case of B1, in data set [2], the Km is 27 µM and the kcat amounted to 19 s⁻¹.

B2: B. amyloliquefaciens subtilisin variant glu + 166 (E166, glycine+166 substituted) (Bacillus amyloliquefaciens; G273E) (protein)
chain: AQSVPYGVSQIKAPALHSQGYTGSNVKVAVIDSGIDSSHPDLKVAGGASMVPSETNPFQDNNSHGTHVAGTVAALNNSIGVLGVAPSASLYAVKVLGADGSGQYSWIINGIEWAIANNMDVINMSLGGPSGSAALKAAVDKAVASGVVVVAAAGNEGTSGSSSTVEYPGKYPSVIAVGAVDSSNQRASFSSVGPELDVMAPGVSIQSTLPGNKYGAYNGTSMASPHVAGAAALILSKHPNWTNTQVRSSLENTTTKLGDSFYYGKGLINVQAAAQ
notes: as for B1
Consider B2, for which, in data set [2], the Michaelis constant (Km) stood at 340 µM and the kcat turned out to be 11 s⁻¹. Moreover, in data set [3], the Km is 27 µM and the kcat is 2 s⁻¹.

B3: B. amyloliquefaciens subtilisin variant asn + 166 (glycine+166 substituted) (Bacillus amyloliquefaciens; G273N) (protein)
chain: AQSVPYGVSQIKAPALHSQGYTGSNVKVAVIDSGIDSSHPDLKVAGGASMVPSETNPFQDNNSHGTHVAGTVAALNNSIGVLGVAPSASLYAVKVLGADGSGQYSWIINGIEWAIANNMDVINMSLGGPSGSAALKAAVDKAVASGVVVVAAAGNEGTSGSSSTVNYPGKYPSVIAVGAVDSSNQRASFSSVGPELDVMAPGVSIQSTLPGNKYGAYNGTSMASPHVAGAAALILSKHPNWTNTQVRSSLENTTTKLGDSFYYGKGLINVQAAAQ
notes: as for B1
On to B3, for which, in data set [2], the Km came out at 140 µM and the kcat was determined as 26 s⁻¹. For the same molecule, in data set [3], the Michaelis-Menten constant (Km) came out at 120 µM and the catalytic constant (kcat) is 1 s⁻¹.

B4: B. amyloliquefaciens subtilisin variant hys + 166 (glycine+166 substituted) (Bacillus amyloliquefaciens; G273H) (protein)
chain: AQSVPYGVSQIKAPALHSQGYTGSNVKVAVIDSGIDSSHPDLKVAGGASMVPSETNPFQDNNSHGTHVAGTVAALNNSIGVLGVAPSASLYAVKVLGADGSGQYSWIINGIEWAIANNMDVINMSLGGPSGSAALKAAVDKAVASGVVVVAAAGNEGTSGSSSTVHYPGKYPSVIAVGAVDSSNQRASFSSVGPELDVMAPGVSIQSTLPGNKYGAYNGTSMASPHVAGAAALILSKHPNWTNTQVRSSLENTTTKLGDSFYYGKGLINVQAAAQ
notes: as for B1
With B4, in data set [2], the Km is 110 µM and the kcat worked out at 15 s⁻¹.

B5: B. amyloliquefaciens subtilisin, wild type (gly-166) (Bacillus amyloliquefaciens) (protein)
chain: AQSVPYGVSQIKAPALHSQGYTGSNVKVAVIDSGIDSSHPDLKVAGGASMVPSETNPFQDNNSHGTHVAGTVAALNNSIGVLGVAPSASLYAVKVLGADGSGQYSWIINGIEWAIANNMDVINMSLGGPSGSAALKAAVDKAVASGVVVVAAAGNEGTSGSSSTVGYPGKYPSVIAVGAVDSSNQRASFSSVGPELDVMAPGVSIQSTLPGNKYGAYNGTSMASPHVAGAAALILSKHPNWTNTQVRSSLENTTTKLGDSFYYGKGLINVQAAAQ
notes: codons for the mature subtilisin corresponding to that secreted by the B. amyloliquefaciens; made in house; host or cells: Bacillus subtilis BG2036 (protease deficient), plasmid pS4-5
Turning to B5, in data set [4], the Km came to 1100 µM and the kcat is 2 s⁻¹.

B6: B. amyloliquefaciens subtilisin variant phe + 166 (glycine+166 substituted) (Bacillus amyloliquefaciens; G273F) (protein)
chain: AQSVPYGVSQIKAPALHSQGYTGSNVKVAVIDSGIDSSHPDLKVAGGASMVPSETNPFQDNNSHGTHVAGTVAALNNSIGVLGVAPSASLYAVKVLGADGSGQYSWIINGIEWAIANNMDVINMSLGGPSGSAALKAAVDKAVASGVVVVAAAGNEGTSGSSSTVFYPGKYPSVIAVGAVDSSNQRASFSSVGPELDVMAPGVSIQSTLPGNKYGAYNGTSMASPHVAGAAALILSKHPNWTNTQVRSSLENTTTKLGDSFYYGKGLINVQAAAQ
notes: as for B1
Consider B6, for which, in data set [2], the Km worked out at 14 µM and the kcat stood at 3 s⁻¹.

B7: B. amyloliquefaciens subtilisin variant asp + 166 (D166, glycine+166 substituted) (Bacillus amyloliquefaciens; G273D) (protein)
chain: AQSVPYGVSQIKAPALHSQGYTGSNVKVAVIDSGIDSSHPDLKVAGGASMVPSETNPFQDNNSHGTHVAGTVAALNNSIGVLGVAPSASLYAVKVLGADGSGQYSWIINGIEWAIANNMDVINMSLGGPSGSAALKAAVDKAVASGVVVVAAAGNEGTSGSSSTVDYPGKYPSVIAVGAVDSSNQRASFSSVGPELDVMAPGVSIQSTLPGNKYGAYNGTSMASPHVAGAAALILSKHPNWTNTQVRSSLENTTTKLGDSFYYGKGLINVQAAAQ
notes: as for B1
B7: the Km in data set [2] turned out to be 580 µM; in data set [3] it was 41 µM. Further, the values for the kcat in data set [2] and in data set [3] were 3 s⁻¹ and 2 s⁻¹, respectively.

B8: B. amyloliquefaciens subtilisin variant lys + 166 (glycine+166 substituted) (Bacillus amyloliquefaciens; G273K) (protein)
chain: AQSVPYGVSQIKAPALHSQGYTGSNVKVAVIDSGIDSSHPDLKVAGGASMVPSETNPFQDNNSHGTHVAGTVAALNNSIGVLGVAPSASLYAVKVLGADGSGQYSWIINGIEWAIANNMDVINMSLGGPSGSAALKAAVDKAVASGVVVVAAAGNEGTSGSSSTVKYPGKYPSVIAVGAVDSSNQRASFSSVGPELDVMAPGVSIQSTLPGNKYGAYNGTSMASPHVAGAAALILSKHPNWTNTQVRSSLENTTTKLGDSFYYGKGLINVQAAAQ
notes: as for B1
For the molecule B8, in data set [2], the Km worked out at 34 µM and the kcat worked out at 15 s⁻¹.

B9: B. amyloliquefaciens subtilisin variant arg + 166 (glycine+166 substituted) (Bacillus amyloliquefaciens; G273R) (protein)
chain: AQSVPYGVSQIKAPALHSQGYTGSNVKVAVIDSGIDSSHPDLKVAGGASMVPSETNPFQDNNSHGTHVAGTVAALNNSIGVLGVAPSASLYAVKVLGADGSGQYSWIINGIEWAIANNMDVINMSLGGPSGSAALKAAVDKAVASGVVVVAAAGNEGTSGSSSTVRYPGKYPSVIAVGAVDSSNQRASFSSVGPELDVMAPGVSIQSTLPGNKYGAYNGTSMASPHVAGAAALILSKHPNWTNTQVRSSLENTTTKLGDSFYYGKGLINVQAAAQ
notes: as for B1
Consider B9, for which, in data set [2], the Km was found to be 62 µM and the kcat amounted to 19 s⁻¹.

One may read the Km as the concentration of substrate that gives half-maximal velocity. The kcat is the maximal rate divided by the concentration of active sites.

These data come from patent publication US5264366A, “Protease deficient bacillus” (Genencor, Inc., priority 1991, dated 1993).
